Here are results for four molecules from patent publication US20030216309A1 (UNIVERSITY OF VERMONT AND STATE AGRICULTURAL COLLEGE, published 2003).

For assay [1], the target named is T1, native, intact ErbB2 extracted from the membranes of human breast cancer cells (human, UniProt P04626 23-1255).
T1 construct: Whole native receptor from cell membrane lysates, captured on plates by an antibody to the intracellular domain of ErbB2; Whole entry named; also called ErbB2 in solubilized membrane preparations / lysates of BT474 and SKBR3 cells
Put plainly: phage ELISA on captured membrane lysates. Here is the method: The above identified peptide phage specifically bind to native, intact ErbB2 extracted from the membranes of human breast cancer cells that overexpress ErbB2. Plates were coated with 1 μg of an antibody that binds to the intracellular domain of ErbB2, followed by 100 μl of solubilized membrane preparations from two different breast cancer cell lines that overexpress ErbB2 (BT474 and SKBR3), and probed with CB1 peptide-phage, control library phage, and 9G6 anti-ErbB2. MCF7 cells serve as a (relative) negative target control, as MCF7 breast cancer cells express only a low level of ErbB2.
A general note: An ELISA detects its analyte on a solid surface through an enzyme-linked reagent.

Assay [2] has as its target T2, purified ErbB2 ECD-polyhistidine-tagged protein (human, UniProt P04626 23-653).
T2 construct: also called CBECD; purified extracellular domain of ErbB2 with a His tag; not shown: polyhistidine tag
Put plainly: phage ELISA on coated CBECD, BSA as control. The method, then:
SfmECDAP labeled wells were plated with 250 ng of a purified ErbB2 ECD-alkaline phosphatase fusion protein; CBECD labeled wells were plated with 250 ng of a purified ErbB2 ECD-polyhistidine-tagged protein; bovine serum albumin (denoted BSA) was used as a negative target control. E12 and CB1 are peptide phage clones identified independently that display an identical (ErbB2-binding) peptide. E12CB1-NA peptide phage clones were constructed to present, with and without a glycine-glycine-alanine linker, a shortened form of the peptide. […] G78 is a peptide phage clone that binds strongly to the Grb7 SH2 domain, used here as a negative peptide phage control. Library phage also serve as a negative peptide phage control. 9G6 is an antibody to the ECD of ErbB2.

B1: 02-124 peptide phage clone (ErbB2-binding peptide 14) (peptide)
peptide: WTGWCLNPEESTWGFCRSAG
notes: From an EC-1 biased peptide phage library; also called EBP-14
Take B1: the binding result in assay [1] and in assay [2] was “binds” throughout.

B2: 02-137 peptide phage clone (ErbB2-binding peptide 15) (peptide)
peptide: WTGWCLSPEESTWGFCRSAG
notes: From an EC-1 biased peptide phage library; also called EBP-15
Take B2: the binding result in assay [1] and in assay [2] was “binds” throughout.

B3: 02-135 peptide phage clone (ErbB2-binding peptide 17) (peptide)
peptide: WTGWCFDDNHSTWGFCTGSF
notes: From an EC-1 biased peptide phage library; also called EBP-17
As to B3, the binding result in assay [1] and in assay [2] was “binds” in each case.

B4: 02-140 peptide phage clone (ErbB2-binding peptide 16) (peptide)
peptide: WTGWCLNPEESTWGFCSGYI
notes: From an EC-1 biased peptide phage library; also called EBP-16
For B4, the binding result in assay [1] and in assay [2] was “binds” throughout.
